Results as given in article doi:10.1101/491043.

Target: M. tuberculosis ClpX (M. tuberculosis) (UniProt P9WPB9)
Assay: SPR

| Substance | Kd | fold reduction in binding against σ^D/RsdA |
| --- | --- | --- |
| σ^D/RsdA complex (from UniProt P9WGG8;H8EZ77) | 0.0145 µM |  |
| σ^M/RsmA complex | 0.133 µM |  |
| σ^K/RskA complex (from UniProt A5TZH1;A5TZH0) | 0.164 µM |  |
| σ^L/RslA complex (from UniProt H8EXN1;H8EXN2) |  | 10 fold |
